# Experimental data reported in US20040106198A1, “Inhibition of peptide cleavage in plants” (LARGE SCALE BIOLOGY CORPORATION, priority 2002, published 2004).
# Target: Nicotianalisin (Nicotiana benthamiana subtilisin-like serine protease) (Nicotiana benthamiana)
# Assay: cell-based or functional assay
# Sequence of Nicotianalisin (Nicotiana benthamiana subtilisin-like serine protease) (Nicotiana benthamiana) (chain, as listed by the source limits assumed): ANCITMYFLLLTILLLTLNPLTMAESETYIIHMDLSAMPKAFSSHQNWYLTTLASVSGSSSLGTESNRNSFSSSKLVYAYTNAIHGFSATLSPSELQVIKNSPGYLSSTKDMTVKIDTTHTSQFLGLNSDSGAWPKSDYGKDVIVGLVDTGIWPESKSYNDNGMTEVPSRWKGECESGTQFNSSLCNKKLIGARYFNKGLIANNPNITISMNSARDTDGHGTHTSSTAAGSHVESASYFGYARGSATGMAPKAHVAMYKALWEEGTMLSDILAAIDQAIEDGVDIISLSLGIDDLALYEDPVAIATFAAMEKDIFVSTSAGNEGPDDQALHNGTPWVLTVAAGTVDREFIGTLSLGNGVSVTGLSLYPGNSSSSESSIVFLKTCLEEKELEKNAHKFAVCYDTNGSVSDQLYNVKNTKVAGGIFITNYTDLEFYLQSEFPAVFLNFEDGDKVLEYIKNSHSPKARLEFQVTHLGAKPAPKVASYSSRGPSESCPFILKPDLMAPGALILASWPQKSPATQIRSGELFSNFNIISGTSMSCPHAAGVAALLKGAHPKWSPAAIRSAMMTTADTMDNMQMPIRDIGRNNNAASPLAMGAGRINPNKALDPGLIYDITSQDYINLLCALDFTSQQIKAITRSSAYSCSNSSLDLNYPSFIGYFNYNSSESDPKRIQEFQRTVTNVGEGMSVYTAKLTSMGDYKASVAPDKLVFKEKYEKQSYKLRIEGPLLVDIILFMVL
row,Substance,% Inhibition of protease activity in IF (hydrolysis of 0.3 mM N-Suc-AAPL-p-NA after 30 min with inhibitor at 24 C) [%]
1,potato protease inhibitor I,30
2,pI-II,2
3,Elastinal (peptide),41
4,Cystain,2
5,Pepstatin A (peptide),6
6,Leupeptin (peptide),18
7,Antipain (peptide),77
8,Amastatin (peptide),5
9,Chymostatin (peptide),100
